In patent US20200323888A1, “INHIBITORS” (VESTLANDETS INNOVASJONSSELSKAP AS, priority 2017, published 2020):
CoA = coenzyme A

T1: MBP-HishNAA80 fusion protein (MBP-Naa80) (human, UniProt Q93015-2 1-308)
T1 sequence (looked up): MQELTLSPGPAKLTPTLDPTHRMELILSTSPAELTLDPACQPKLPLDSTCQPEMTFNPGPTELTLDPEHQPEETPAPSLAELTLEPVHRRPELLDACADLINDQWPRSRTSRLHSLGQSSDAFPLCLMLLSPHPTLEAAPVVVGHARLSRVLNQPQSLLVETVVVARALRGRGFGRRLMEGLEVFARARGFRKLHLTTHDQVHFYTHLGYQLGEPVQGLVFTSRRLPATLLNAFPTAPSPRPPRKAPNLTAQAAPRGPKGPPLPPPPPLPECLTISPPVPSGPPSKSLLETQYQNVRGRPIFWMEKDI

B1: DEEL (Naa80 bisubstrate analogue inhibitor) (peptide)
peptide: {CoA-Ac}-DEEL-NH2
B2: DEEI (Naa80 bisubstrate analogue inhibitor) (peptide)
peptide: {CoA-Ac}-DEEI-NH2
B3: QEEI (Naa80 bisubstrate analogue inhibitor) (peptide)
peptide: {CoA-Ac}-QEEI-NH2
B4: EEDL (Naa80 bisubstrate analogue inhibitor) (peptide)
peptide: {CoA-Ac}-EEDL-NH2
B5: DEDI (Naa80 bisubstrate analogue inhibitor) (peptide)
peptide: {CoA-Ac}-DEDI-NH2
B6: EDEL (Naa80 bisubstrate analogue inhibitor) (peptide)
peptide: {CoA-Ac}-EDEL-NH2
B7: ESEL (Naa80 bisubstrate analogue inhibitor) (peptide)
peptide: {CoA-Ac}-ESEL-NH2
B8: PDEL (Naa80 bisubstrate analogue inhibitor) (peptide)
peptide: {CoA-Ac}-PDEL-NH2
B9: EEEL (Naa80 bisubstrate analogue inhibitor) (peptide)
peptide: {CoA-Ac}-EEEL-NH2
B10: EEDI (Naa80 bisubstrate analogue inhibitor) (peptide)
peptide: {CoA-Ac}-EEDI-NH2
B11: EDEI (Naa80 bisubstrate analogue inhibitor) (peptide)
peptide: {CoA-Ac}-EDEI-NH2
B12: CoA-Ac-MDEL-NH2 (peptide)
peptide: {CoA-Ac}-MDEL-NH2
B13: EDDI (Naa80 bisubstrate analogue inhibitor) (peptide)
peptide: {CoA-Ac}-EDDI-NH2
B14: DDEI (Naa80 bisubstrate analogue inhibitor) (peptide)
peptide: {CoA-Ac}-DDEI-NH2
B15: CoA-Ac-EEEI-NH2 (peptide)
peptide: {CoA-Ac}-EEEI-NH2
B16: EDQL (Naa80 bisubstrate analogue inhibitor) (peptide)
peptide: {CoA-Ac}-EDQL-NH2

target: T1, MBP-HishNAA80 fusion protein (MBP-Naa80); experiment: cell-based or functional assay

| Binder | IC50 (µM), Nt-acetylation inhibition [µM] |
| --- | --- |
| B1 | 4.73 |
| B2 | 1.22 |
| B3 | 2.23 |
| B4 | 1.76 |
| B5 | 3.12 |
| B6 | 0.15 |
| B7 | 11.5 |
| B8 | 13.4 |
| B9 | 1.16 |
| B10 | 0.17 |
| B11 | 0.76 |
| B12 | 1.26 |
| B13 | 0.12 |
| B14 | 2.67 |
| B15 | 1.16 |
| B16 | 0.85 |
